Reference: patent US6090631
Each block holds one substance with its values, some of them ahead of it.

What was measured:
[1] = target: GST-syntaxin 1A fusion protein, full-length (2-289) (rat); assay: GST-syntaxin 1A pull-down (5 µM GST-syntaxin, 10 µM fusion protein), immunoblot
[2] = target: GST-syntaxin 1A fusion protein, full-length (2-289) (rat); assay: competition on GST-syntaxin beads against 125I-ω-CTx-GVIA-labeled N-type channels
[3] = target: GST alone (Schistosoma japonicum (Blood fluke)) [GST: P08515]; assay: 125I-ω-CTx-GVIA-labeled channels on GST beads, direct counting
[4] = target: GST-syntaxin 1A fusion protein, full-length (2-289) (rat); assay: titration on GST-syntaxin beads, immunoblot
[5] = target: GST fusion protein including full-length SNAP-25 (Mus musculus (Mouse)) (UniProt P60879); assay: titration on GST-SNAP-25 beads, immunoblot
[6] = target: GST-syntaxin 1A fusion protein, full-length (2-289) (rat); assay: GST-syntaxin pull-down at equal concentrations, immunoblot

Substance: His-LII-III (718-859)
pixel value (phosphorimaging of bound fusion protein, FIG. 14) [1]: 45 pixel value

Substance: His-LII-III (773-859)
percent reduction in the specific binding of labeled N-type channels to GST-syntaxin [2]: 78%

Substance: His-LII-III (1027-1145)
percent reduction in the specific binding of labeled N-type channels to GST-syntaxin [2]: 10%

Substance: [125I]-ω-CTx-GVIA-labeled N-type calcium channels, partially purified from rat brain (from UniProt Q02294)
cpm of labeled channels bound [3]: 549 cpm

Substance: rbB 718-963
pixel value (phosphorimaging of bound fusion protein, FIG. 14) [1]: 1650 pixel value
fold higher affinity than rbB 718-859 [6]: 40 fold
fold greater affinity than hBI 722-1036 [4]: 10 fold
half-maximal saturation [4]: 0.2 µM

Other lines, results leading:

pixel value (phosphorimaging of bound fusion protein, FIG. 14) [1]: 751 pixel value
Substance: His-LII-III (832-963)

half-maximal saturation [4]: 2 µM
half-maximal saturation [5]: 1 to 2 µM
Substance: hBI 722-1036
